Experimental data reported in paper PMC3581536.

Biological target: MazFa tagged with 6 histidine at its C-terminus (Anabaena sp. PCC 7120)
Assay: pull-down; MazEa and MazFa-His6 co-expressed in E. coli BL21(DE3)(pJS798); co-purified on Ni2+-NTA His.Bind resin under native conditions; 15% SDS-PAGE, bands identified by MALDI-TOF MS, densitometry with Image J

Substance: MazEa (natural protein)
- stoichiometry N (MazEa per MazFa (molar ratio)): 0.5
